B1: CPEB3 Ribozyme (parent)
chain: GGGGGCCACAGCAGAAGCGUUCACGUCGCGGCCCCUGUCAGAUUCUGGUGAAUCUGCGAAUUCUGCUGU

The variants in this data set derive from B1. Briefly: self-cleavage, relative activity (ratio to wild type); higher = more cleavage; co-transcriptional.
As to GGGGGCCACAGCAGAAGCGUUCGCGUCGCGGCCCCUGUCAGAUUCUGGUGAUUCUGCGAAUUCUGCUGU, the self-cleavage was determined as 0.933.
Turning to GGGGGCCACAGCAGAAGCGUUCGCGUCGCGGCCCCUGUCAGAUUCUGGUGACUCUGCGAAUUCUGCUGU, the self-cleavage turned out to be 0.935.
As for GGGGGCCACAGCAGAAGCGUUCGCGUCGCGGCCCCUGUCAGAUUCUGGUGAGUCUGCGAAUUCUGCUGU, the figure is 1.02; as for GGGGGCCACAGCAGAAGCGUUCCCGUCGCGGCCCCUGUCAGAUUCUGGUGAAUCUGAGAAUUCUGCUGU, 0.339.
With GGGGGCCACAGCAGAAGCGUUCCCGUCGCGGCCCCUGUCAGAUUCUGGUGAAUCUGGGAAUUCUGCUGU, the self-cleavage is 0.412.
Consider GGGGGCCACAGCAGAAGCGUUCCCGUCGCGGCCCCUGUCAGAUUCUGGUGAAUCUGUGAAUUCUGCUGU, for which the self-cleavage is 0.406.
As for GGGGGCCACAGCAGAAGCGUUCCCGUCGCGGCCCCUGUCAGAUUCUGGUGAAUCUGCGAAUUCUGCUUU, the self-cleavage was 0.995.
Regarding GGGGGCCACAGCAGAAGCGUUCCCGUCGCGGCCCCUGUCAGAUUCUGGUGAAUCUGCGAAUUCUGCUCU, the self-cleavage is 0.977.
Next, GGGGGCCACAGCAGAAGCGUUCCCGUCGCGGCCCCUGUCAGAUUCUGGUGAAUCUGCGAAUGCUGCUGU: 0.853; GGGGGCCACAGCAGAAGCGUUCCCGUCGCGGCCCCUGUCAGAUUCUGGUGAAUCUGCGAAUCCUGCUGU: 0.818.
In the case of GGGGGCCACAGCAGAAGCGUUCCCGUCGCGGGCCCUGUCAGAUUCUGGUGAAUCUGCGAAUUCUGCUGU, the self-cleavage worked out at 0.329.
As to GGGGGCCACAGCAGAAGCGUUCCCGUCGCGGACCCUGUCAGAUUCUGGUGAAUCUGCGAAUUCUGCUGU, the self-cleavage was 0.59.
With GGGGGCCACAGCAGAAGCGUUCCCGUCGCGGCCCCUGUCAGAGUCUGGUGAAUCUGCGAAUUCUGCUGU, the self-cleavage was found to be 0.82.
Next, GGGGGCCACAGCAGAAGCGUUCCCGUCGCGGCCCCUGUCAGAAUCUGGUGAAUCUGCGAAUUCUGCUGU: 0.771; GGGGGCCACAGCAGAAGCGUUCCCGUCGCGGCCCCUGUCAGAUUCUGGUGAAUCUGCGAAUUCUGCUGA: 0.959.
In the case of GGGGGCCACAGCAGAAGCGUUCCCGUCGCGGCCCCUGUCAGAUUCUGGUGAAUCUGCGAAUUCUGCUGC, the self-cleavage is 1.04.
In the case of GGGGGCCACAGCAGAAGCGUUCCCGUCGCGGCCCCUGUCAGAUUCUGGUGAAGCUGCGAAUUCUGCUGU, the self-cleavage was found to be 0.81.
Regarding GGGGGCCACAGCAGAAGCGUUCCCGUCGCGGCCCCUGUCAGAUUCUGGUGAACCUGCGAAUUCUGCUGU, the self-cleavage is 0.915.
For the variant GGGGGCCACAGCAGAAGCGUUCCCGGCGCGGCCCCUGUCAGAUUCUGGUGAAUCUGCGAAUUCUGCUGU, the self-cleavage turned out to be 0.749.
Next, GGGGGCCACAGCAGAAGCGUUCCCGUCGCGGCCCCUGUCAGAUUCUGGUGAAUCUGCGAAUUCUGAUGU: 0.908; GGGGGCCACAGCAGAAGCGUUCCCGUCGCGGCCCCUGUCAGAUUCUGGUGAAUCUGCGAAUUCUGUUGU: 0.94.
Take GGGGGCCACAGCAGAAGCGUUCGCGUCGCGGCCCCUGUCCGAUUCUGGUGAAUCUGCGAAUUCUGCUGU: the self-cleavage was determined as 0.328.
With GGGGGCCACAGCAGAAGCGUUCGCGUCGCGGCCCCUGUCGGAUUCUGGUGAAUCUGCGAAUUCUGCUGU, the self-cleavage was found to be 0.992.
Next, GGGGGCCACAGCAGAAGCGUUCCCGUCGCGGCCCCUGUCAUAUUCUGGUGAAUCUGCGAAUUCUGCUGU: 0.815; GGGGGCCACAGCAGAAGCGUUCCCGUCGCGGCCCCUGUCAGAUUCUGGUGAAUCUGCGAAUUCUGCAGU: 0.988; GGGGGCCACAGCAGAAGCGUUCCCGUCGCGGCCCCUGUCAGAUUCUGGUGAAUCUGCGAAUUCUGCCGU: 0.97.
As to GGGGGCCACAGCAGAAGCGUUCGCGUCGCGGCCCCUGUCAGAUUCUGGUGUAUCUGCGAAUUCUGCUGU, the self-cleavage was 1.
As to GGGGGCCACAGCAGAAGCGUUCCCGUCGCGGCCCCUGUCAGAUUCUGGUGAAUCUGCGAAUUGUGCUGU, the self-cleavage came out at 0.573.
Regarding GGGGGCCACAGCAGAAGCGUUCCCGUCGCGGCCCCUGUCAGAUUCUGGUGAAUCUGCGAAUUAUGCUGU, the self-cleavage is 0.738.
As to GGGGGCCACAGCAGAAGCGUUCCCGUCGCGGCCCCUGUCAGAUUCUGGUGAAUCCGCGAAUUCUGCUGU, the self-cleavage was determined as 0.891.
On to GGGGGCCACAGCAGAAGCGUUCCCGUCGCGGCCCCUGUCAGAUUCUGGUGAAUCUGCGAAUUCGGCUGU, for which the self-cleavage came out at 0.878.
Regarding GGGGGCCACAGCAGAAGCGUUCCCGUCGCGGCCCCUGUCAGAUUCUGGUGAAUCUGCGAAUUCCGCUGU, the self-cleavage worked out at 0.912.
GGGGGCCACAGCAGAAGCGUUCCCGUCGCGGCCCCUGUCAGAUUGUGGUGAAUCUGCGAAUUCUGCUGU: the self-cleavage came to 0.931.
Regarding GGGGGCCACAGCAGAAGCGUUCCCGUCGCGGCCCCUGUCAGAUUUUGGUGAAUCUGCGAAUUCUGCUGU, the self-cleavage is 0.961.
Turning to GGGGGCCACAGCAGAAGCGUUCCCGUCGCGGCCCCUGUCAGAUUAUGGUGAAUCUGCGAAUUCUGCUGU, the self-cleavage amounted to 0.986.
As for GGGGGCCACAGCAGAAGCGUUCCCGUCGCGGCCCCUGUCAGAUUCUGGUGAAUGUGCGAAUUCUGCUGU, the figure is 0.921; as for GGGGGCCACAGCAGAAGCGUUCCCGUCGCGGCCCCUGUCAGAUUCUGGUGAAUUUGCGAAUUCUGCUGU, 0.967.
On to GGGGGCCACAGCAGAAGCGUUCCCAUCGCGGCCCCUGUCAGAUUCUGGUGAAUCUGCGAAUUCUGCUGU, for which the self-cleavage was found to be 0.203.
Take GGGGGCCACAGCAGAAGCGUUCCCGUCGCGGCCCCUGUCAGAUUCUGGUGAAUCUGCGAAGUCUGCUGU: the self-cleavage turned out to be 0.855.
Take GGGGGCCACAGCAGAAGCGUUCCCGUCGCGGCCCCUGUCAGAUUCUGGUGAAUCUGCGAAAUCUGCUGU: the self-cleavage amounted to 0.832.
Turning to GGGGGCCACAGCAGAAGCGUUCCCGUCGCCGCCCCUGUCAGAUUCUGGUGAAUCUGCGAAUUCUGCUGU, the self-cleavage worked out at 0.58.
As for GGGGGCCACAGCAGAAGCGUUCCCGUCGCAGCCCCUGUCAGAUUCUGGUGAAUCUGCGAAUUCUGCUGU, the figure is 0.743; as for GGGGGCCACAGCAGAAGCGUUCCCGUCGCGGCCCCUGGCAGAUUCUGGUGAAUCUGCGAAUUCUGCUGU, 0.216; as for GGGGGCCACAGCAGAAGCGUUCCCGUCGCGCCCCCUGUCAGAUUCUGGUGAAUCUGCGAAUUCUGCUGU, 0.186.
Next, GGGGGCCACAGCAGAAGCGUUCCCGUCGCGUCCCCUGUCAGAUUCUGGUGAAUCUGCGAAUUCUGCUGU: 0.528; GGGGGCCACAGCAGAAGCGUUCCCGUCGCGGCCCCUGUCAGAUUCUGGUGAAUCUCCGAAUUCUGCUGU: 0.762.
In the case of GGGGGCCACAGCAGAAGCGUUCCCGUCGCGGCCCCUGUCAGAUUCUGGUGAAUCUACGAAUUCUGCUGU, the self-cleavage is 0.852.
Next, GGGGGCCACAGCAGAAGCGUUCGCGUCGCGGCCCCUGUCAGAUUCUGGUGAAUCUGCGCAUUCUGCUGU: 0.699.
As to GGGGGCCACAGCAGAAGCGUUCGCGUCGCGGCCCCUGUCAGAUUCUGGUGAAUCUGCGUAUUCUGCUGU, the self-cleavage came to 0.817.
Next, GGGGGCCACAGCAGAAGCGUUCCCGUCGCGGCCGCUGUCAGAUUCUGGUGAAUCUGCGAAUUCUGCUGU: 0.36; GGGGGCCACAGCAGAAGCGUUCCCGUCGCGGCCUCUGUCAGAUUCUGGUGAAUCUGCGAAUUCUGCUGU: 0.936; GGGGGCCACAGCAGAAGCGUUCCCGUCGCGGCCACUGUCAGAUUCUGGUGAAUCUGCGAAUUCUGCUGU: 0.696.
As to GGGGGCCACAGCAGAAGCGUUCCCGUCGCGGCCCCUGUCAGAUUCUGGUGAAUCUGCCAAUUCUGCUGU, the self-cleavage amounted to 0.891.
For GGGGGCCACAGCAGAAGCGUUCCCGUCGCGGCCCCCGUCAGAUUCUGGUGAAUCUGCGAAUUCUGCUGU, the self-cleavage was 0.679.
Turning to GGGGGCCACAGCAGAAGCGUUCGCGUCGCGGCCCCUGUCAGAUUCUGGUGAAUCUGCGAAUUCUGCUGU, the self-cleavage was 0.984.
GGGGGCCACAGCAGAAGCGUUCCCGUCGCGGCUCCUGUCAGAUUCUGGUGAAUCUGCGAAUUCUGCUGU: the self-cleavage worked out at 0.937.
GGGGGCCACAGCAGAAGCGUUCCCGUCGCGGCGCCUGUCAGAUUCUGGUGAAUCUGCGAAUUCUGCUGU: the self-cleavage is 0.439.
With GGGGGCCACAGCAGAAGCGUUCGCGUCGCGGCCCCUGUCAGAUUCUGGUGAAUCUGCGAGUUCUGCUGU, the self-cleavage was 0.866.
As for GGGGGCCACAGCAGAAGCGUUCGCGUCGCGGCCCCUGUCAGAUUCUGGUGAAUCUGCGAUUUCUGCUGU, the figure is 0.385; as for GGGGGCCACAGCAGAAGCGUUCGCGUCGCGGCCCCUGUCAGAUUCUGGUGAAUCUGCGACUUCUGCUGU, 0.249; as for GGGGGCCACAGCAGAAGCGUUCCCGUCGCGGCCCCUGUCAGAUUCUGGCGAAUCUGCGAAUUCUGCUGU, 0.927.
In the case of GGGGGCCACAGCAGAAGCGUUCCCGUCGCGGCCCCUGUCAGAUUCUGGAGAAUCUGCGAAUUCUGCUGU, the self-cleavage was 0.951.
As for GGGGGCCACAGCAGAAGCGUUCCCGUCGCGGCCCCUGUCAGAUUCUGGUGAAUCUGCGAAUUCUUCUGU, the figure is 0.674.
As for GGGGGCCACAGCAGAAGCGUUCCCGUCGCGGCCCCUGUCAGAUUCUGGUGAAUCUGCGAAUUCUACUGU, the figure is 0.764; as for GGGGGCCACAGCAGAAGCGUUCCCGUCGCGGCCCCUGUCAGAUUCUGGUGAAUCUGCGAAUUCUCCUGU, 0.535; as for GGGGGCCACAGCAGAAGCGUUCCCGUCGCGGCCCCUGUCAGAUUCUGCUGAAUCUGCGAAUUCUGCUGU, 0.924.
In the case of GGGGGCCACAGCAGAAGCGUUCCCGUCACGGCCCCUGUCAGAUUCUGGUGAAUCUGCGAAUUCUGCUGU, the self-cleavage was determined as 0.206.
For the variant GGGGGCCACAGCAGAAGCGUUCCCGUCCCGGCCCCUGUCAGAUUCUGGUGAAUCUGCGAAUUCUGCUGU, the self-cleavage was 0.183.
Turning to GGGGGCCACAGCAGAAGCGUUCCCGUCGCGGCCCCUGUCAGAUUCAGGUGAAUCUGCGAAUUCUGCUGU, the self-cleavage was determined as 0.923.
Next, GGGGGCCACAGCAGAAGCGUUCCCGUCGCGGCCCCUGUCAGAUUCUGGUUAAUCUGCGAAUUCUGCUGU: 0.953; GGGGGCCACAGCAGAAGCGUUCCCGUCGCGGCCCCUGUCAGAUUCUGGUCAAUCUGCGAAUUCUGCUGU: 0.981; GGGGGCCACAGCAGAAGCGUUCCCGUCGCGGCCCCUGUCAGAUUCUGGUAAAUCUGCGAAUUCUGCUGU: 0.946.
For GGGGGCCACAGCAGAAGCGUUCCCGUCGCGGCCCCUGUGAGAUUCUGGUGAAUCUGCGAAUUCUGCUGU, the self-cleavage was found to be 0.905.
Regarding GGGGGCCACAGCAGAAGCGUUCCCGUCGCGGCCCCUGUAAGAUUCUGGUGAAUCUGCGAAUUCUGCUGU, the self-cleavage came out at 0.798.
As for GGGGGCCACAGCAGAAGCGUUCCCGUCGCGGCCCGUGUCAGAUUCUGGUGAAUCUGCGAAUUCUGCUGU, the figure is 0.417; as for GGGGGCCACAGCAGAAGCGUUCCCGUCGCGGCCCCUGUCAGAUCCUGGUGAAUCUGCGAAUUCUGCUGU, 0.874; as for GGGGGCCACAGCAGAAGCGUUCCCGUCGCGGCCCCUAUCAGAUUCUGGUGAAUCUGCGAAUUCUGCUGU, 0.3.
In the case of GGGGGCCACAGCAGAAGCGUUCCCGUCGCGGCCCCUCUCAGAUUCUGGUGAAUCUGCGAAUUCUGCUGU, the self-cleavage is 0.254.

These data come from the RNAGym collection of RNA variant scans (doi:10.7554/elife.80360).
